How the values were obtained:
[1] = biological target: MERS-CoV Spike S1 protein (Middle East respiratory syndrome …, UniProt K9N5Q8 18-751); test: bead-based fluorescence binding assay
myoglobin = myoglobin (horse, UniProt P68082 2-154); test: EMSA
Chain of myoglobin (P68082 2-154): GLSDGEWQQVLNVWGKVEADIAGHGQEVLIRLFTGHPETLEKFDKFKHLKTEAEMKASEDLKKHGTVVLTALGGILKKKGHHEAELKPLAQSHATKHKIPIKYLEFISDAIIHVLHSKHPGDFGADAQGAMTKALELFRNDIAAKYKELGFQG

Chain of MERS-CoV Spike S1 protein (K9N5Q8 18-751): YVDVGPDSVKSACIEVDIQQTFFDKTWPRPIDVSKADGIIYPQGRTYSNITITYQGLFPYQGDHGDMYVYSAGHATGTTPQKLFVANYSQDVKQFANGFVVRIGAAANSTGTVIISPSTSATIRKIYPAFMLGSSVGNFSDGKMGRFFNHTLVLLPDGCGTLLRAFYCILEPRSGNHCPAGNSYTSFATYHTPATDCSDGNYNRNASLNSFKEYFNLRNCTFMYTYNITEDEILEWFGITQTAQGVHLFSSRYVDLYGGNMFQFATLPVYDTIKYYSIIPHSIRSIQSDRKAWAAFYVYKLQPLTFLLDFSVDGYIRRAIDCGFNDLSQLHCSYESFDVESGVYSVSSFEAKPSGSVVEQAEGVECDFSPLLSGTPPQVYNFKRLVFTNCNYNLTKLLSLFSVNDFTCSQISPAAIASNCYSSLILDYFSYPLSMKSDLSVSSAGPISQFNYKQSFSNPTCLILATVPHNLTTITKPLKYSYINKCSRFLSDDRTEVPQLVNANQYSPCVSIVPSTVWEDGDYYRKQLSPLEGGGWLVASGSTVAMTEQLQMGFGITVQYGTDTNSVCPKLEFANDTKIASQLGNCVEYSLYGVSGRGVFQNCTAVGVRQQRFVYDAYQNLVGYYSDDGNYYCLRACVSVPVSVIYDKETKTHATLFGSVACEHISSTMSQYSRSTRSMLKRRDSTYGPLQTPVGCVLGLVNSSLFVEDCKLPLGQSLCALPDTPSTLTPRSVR

Binder	Kd [1] [nM]	binding result (myoglobin)
S-19 aptamer (ssDNA) DNA: TGACACCGTACCTGCTCTGCACTTCCTTCACCAGAAACCTGCACATCTTCGCCGCGTGAAGCACGCCAAGGGACTAT	112 ± 3.89	–
MF MERS aptamer (3WJ of MERSapt-3WJa, MB/3WJb, NH2/3WJc) (structured_DNA, 5' NH2 on S6) DNA 1: TGACACCGTACCTGCTCTGCACTTCCTTCACCAGAAACCTGCACATCTTCGCCGCGTGAAGCACGCCAAGGGACTATTTGCCATGTGTATGTGGG DNA 2: TTTGGGTAGGGCGGGTTGGGCCCACATACTTTGTTGATCC DNA 3: GGATCAATCATGGCAA	–	no binding
S-12 aptamer (MERS aptamer-b) (ssDNA) DNA: TGACACCGTACCTGCTCTCCGACCCATCTAGCACTTCACACACGCCCGATCGGATTAGTAAGCACGCCAAGGGACTAT	287 ± 17.7	–

Reference: publication PMC8582077
